The DeepSol protein solubility set

experiment: soluble on expression in E. coli; label from the status in PepcDB or PDB records

Row | Sequence | soluble on expression in E. coli
1 | MGSDKIHHHHHHMSRAIPAMPLAPASAALDLSKVKTLVCEPSLPIRQGIRLALNNVGIRDITEATTFLAAHQACKEGDHDFLLLNQEIETNDTAFMVRELRSGALGRDPFILTVMLLSSREEPKVRSAIDCGPDDLLLIPFAPDQLMNRLKAQIERRKPFVVTHDYIGPDRRAAPRPGATSATQFQVPNPVRARGTNVPRDRYDRMKQESIVTISVERIKRLAATMDWECNALTVSAREGRMTPESTYRSLLKLEQVTAELSLRVTKQLGHSTETIDSLTQYLPPVEDGSEQCKLFRC | not soluble
2 | MGSDKIHHHHHHMSRIENQFTVQFWGVRGSIPSPGPHTVRYGGNTPCISMQAGDKRLVFDAGTGLHVLGQSWLRQMPLEGHIFFTHSHWDHMQGFPFFTPGFVKGNDFHIYGAIAPDGSTIEQRLNDQMLHPNFPVPLQIMQANLKFYDIRPGQPIHIDDVTVETAPLNHPGEAVGYRVNWRGGAVAYITDTEHFPDRLDDNVLWLARNADILVYDSTYTDEEYHSPKTPKIGWGHSTWQEAVKVAQAANVKTLVIYHHDPAHNDDFLDCVGQQASEKFPGAIMAREGMVLQIPTSVALSESFPVSKFST | not soluble
3 | MGSDKIHHHHHHMSRLVRSATLSRYTEVARSVGLDPLRILAEVGLPRTCLDAGDNLVSANAVCRLLEMSAADSDAEDFGLRMGEGRQLSVLGPLGMAVRDSPTLRDALGAMVRYITLHSEALFLGVEEREGALVIRVSLIVEHAGSTRQADEMVVVSLYRMLQELIGPGWRARRICLSHEAPRSLASHLRVFGRAVDFGCDFNGIVCELKDMDAMPRAARPELAQYAHAYLDSLSARATLSMTENVRRMVLSLLPSGNCSVERVASQLGVDRRTVHRKLLQEGASFSSILDEVRATLALQYLRHLERPVSYVAVLLGFSMQSAFSRWFRDHFGCSPSAWRSEGMQPARPVPRQPLLAASPEQRM | not soluble
4 | MGSDKIHHHHHHMSRRLPPLNAVKAFEAAARHLSFTRAAEELFVTQAAVSHQIKALEDFLGLKLFRRKNRSLLLTEEGQSYFLDIKDIFTQLSDATDRLLARSAIGSLTVSMSPSFAIQWLVPRLAKFSEKNPDIDVRIKAVDSEEGSLTDDVDVAIYYGQGSWPGLRADKLRNEVLIPVCSPMLLNGHKPLETPADLKHHTLLHDMSRHDWQAWFRQCGVTDVNVNQGPIFSHSSLVLQAAAHGQGVALGYSVLARPDIKAGRLVVPFQEVLVSKDAYYLVCQQNHAELGKIVAFREWMLDMFAEESRSELLPA | not soluble
5 | MGSDKIHHHHHHMSSQNALYMLIDERLRRDELKLPGLPETAEQVRNAAMDPDCNLHDLCHIIQQDTALTARLIRLANSAYLGGRNKAESLMQALTRIGMRRIRTLALAMAMEQVFKPDNDIVQMFSQQFIVESREIAAAAVVITEDLQHRGIGHRLHQDVALLAGMVSRIGVAPILHMANEFEDSFANPSFIKECITQFSSTLGSNILSYWQFTPNLVQVPLCYYNGRMTLNDAITVNYCDIVHLAGLLTGNVKPNKDSVTLVEYQMLGVIKTDDFWQQESVQKSYRQMLDLLS | not soluble
6 | MGSDKIHHHHHHMSSSSVLAESCNGSQKKRVFVVGATGYIGKFVVRELVSRGYEVISFARPRSGVNASTTEDETRRQLQGSEVRFGDVSNLESLLRDGIRGEHFDAVVSCLASRNGGIKDSWDIDYQATRNSLDAGMKAGINHFVLLSAICVQKPMLEFQRAKLKFEKELRESGVTYSIVRPTAFFKSIAGQIEKVKNGKPYVMFGDGKLTACKPISEGDLARFITDCLEDPEKQNKILPIGGPGEPVTNLDQALMLFELLGRKPKLKKVPIQIFDVIIPLLTLISKFLPSFAEKAEFARIGKYYCSESMLVWDPVKKRYDADATPSYGTETLRDFYKRVLKEGLAGQELGAHAMF | not soluble
7 | MGSDKIHHHHHHMSSVHAINQSYWFSTQLPHVESRTTRNSSHAYKTHSHAQFSIGAIEHGETLCHYRNETHHLQAGDLIFIDPQQPHSCNPPPGKMRSYHMLYLDTAWCLDQIAVHCNYQADSLRCNRVVLRDPTLFIRYQHLITLLHRGEITSADSLLNAMLTPVWQQYCLPEPALPHQALQTTTRHVRERLLNNLQESPSLETLADELNLRRETIVRQFRHDTGITPMAFLNNARIEYAKSLLKQGTPLVDTSYQSGFCDQSHFHKTFVQYTSATPGQYARSIFDNK | not soluble
8 | MGSDKIHHHHHHMSTAIRYLRLYLHRPAAQGGGRRGIGYLSQYGDILRVSFDEDYIADPQRPTLSLSYRGANEADTQRILRSARDARLVRTDGRWPAYFQNLLPEGHNRDRLARERGCAPDDEFELLAAAGHDLMGALEVEPVPAQEGVPDVVRYWHTTQGLDVLEPGFVEYPVEDAASLPGVVTKFSAVQDGRRYLVKRRGAAGSVILKLPTTAHPDLVANEFTCYQLAGSLGLHCAQARIITRAEAELPEAVPLDDILAVQRFDHLADGTRVHMEEFNQALGYAPRQKYGKGLLQDWATMLRVVDRLSDQPVQDTREFLARMVAFILMGNTDAHLKNWALVYPDGHTPRLAPLYDPVCVAAFFEGATEHQYAVNRAIDRSMRALDWDALQALIKTAGLLRIPRHLALLRDLVRRAQADWPALLADAPSTLQRTVQARLAGGVALTHP | not soluble
9 | MGSDKIHHHHHHMSTEKIFIIGLPRTATTSVCLAMLEQGYKTAHNAYTQDSFSQAQVLADTPIFCDYQTLDKDFPNSRFIHLTRAPELWLPSIKQLLQRMLVNLQRTDGGFNPHIKRCYSETFSPLTEENINSDEFLLDCYTRHQQGITEHFQDRPQDLLTIDVGDEGSYLAMLSFLNIEKEKAREGGFKQINIGGKVRAWQHLNNPLKVESTNKGRIDKVLY | not soluble
10 | MGSDKIHHHHHHMSTLLQIKNLRTYFFTDEGVVKAVDGVSFEIEEGRTLGVVGESGCGKSVTARSIIKLLSTAGRIVSGEILYNMDGQMVDLVKFSKEEIRKVRGRHIAMIFQEPMAAFSPVYTIGDQITEGMIYHFGITKQEARERAVELLRRVGIPKPEKMIDSYPFEYSGGMRQRAMIAMALSCNPRLLIADEPTTALDVTIQAQVLDLLKDLQQEYKMAIMMITHNMGVVAEMADHVVVMYLGRVVESAPVEELFYNPKHPYTSLLLRSIPVVGKRVERLEVIEGDVPDPRNMPKGCRFHPRCPYMMKGICDEREPVEVEVGPEHRVSCFLYGGEKDGAS | not soluble
11 | MGSDKIHHHHHHMSTRQLLRNHYVQVDRSKKPYCFLLAKEPEYNDILNNYRIPLGEYQFKRTLFAREWLYKDVWHEMVSFAFCREPLSRCISAFFYLWEAEAQRRAWLPSFNGALNAHGYGLDYSFDQFLDAVVACRDSGSNFSPMGLHFSTHTATMWDDVTDSGGSILLSNIFRLEDLIHGINHVFSVCGVPDKAKPLLRDINTNETKRPFTPSRHHIAKVEDLYGKDFELYETYGRLF | not soluble
12 | MGSDKIHHHHHHMSVLVVGMSHRSAPVALLEKLSMDDGVRTNTVSDLVARPSLAEAMIVSTCNRLEVYAMTSSFHTGVNDVVEVLHDMSGVDMEELRGYLYVRYADAAAEHMMEVTSGLDSMVVGEQQIIGQVRTAYHSATEAGTVGPALHGLVQASLHTGKRVHTETDIDDAGASMVSFACDEALAQMSATNFAGCRALVLGAGAMASLAATHLGRLGIEHITVANRTFERAQRLADHAVEAGVAASAIEFERRMDVLCDVDVVVSATGANTFTIEAANIPAAHGDLMMIDLSLPRDISDDVAEVPGVHLVNIEKLRDVASSGEAKDHAAQRIVAEELEAYTSAQRIRDVAPAVAALRRHASSLIDSELARLSTRVPSMDEDDFSEVQRTVRRVVDKLLHQPTVRVKELAAQSGTVSYDTAIQELFGLAVEATPVAVNVDELPERINKR | not soluble
13 | MGSDKIHHHHHHMSVVIGYYGKNGAVIAGDKRNLLFNGIESNRAKLEEVLYSGEIKNDEELFKKASEFEVTVHINDTREKVKSLGNLLSGEVVSIGKDSKRRRMYLTKEKCAIIDIENDQITNKSVKTGSGIVVFGNRYVKHFVESEIKKHVQKLLKMSAREIRDLFEKILKNIENATLSDTFEYYVVEAGEPEFEKAVNKDLDDLFNYRHDLSIKMAEMQILTMIAEKIVKIGDVGVIKNGTLVLYDEFLAINKICPEPEIYSEIEITGEFIEGDIITIDNESLKVKRTGSPVAVQKIICKK | not soluble
14 | MGSDKIHHHHHHMSYLLRKPQSHEVSNGVKLVHEVTTSNSDLTYVEFKVLDLASGSSYTEELKKQEICIVAVTGKITVTDHESTFENIGTRESYFERKPTDSVYISNDRAFEITAVSDARVALCYSPSEKQLPTKLIKAEDNGIEHRGQFSNKRTVHNILPDSDPSANSLLVVEVYTDSGNWSSYPPHKHDQDNLPEESFLEETYYHELDPGQGFVFQRVYTDDRSIDETMTVGNENVVIVPAGYHPVGVPDGYTSYYLNVMAGPTRKWKFYNDPAHEWILER | not soluble
15 | MGSDKIHHHHHHMSYSDVIAIAGGWEGYRVAGARTIVTSDAKRIEVELIALSQDEMVCGSCGGRCTSVHETTKRVIRDLPILDAQTYLIVHRRRLLCPQCGPTLERLSWLAKYARVTRRLAESVARLCGVVSVKHVAQYLGLSWDQVKEIDKRSLTERVGTVDLSNIEVLGMDEFALHKGHRYATVIIEPYRKEVLWIGKGRSRESIRPFFTQLGPHGCKRLKAVVMDMNASYEEEIKQHSPQADIVYDLFHVVAKYGREVIDRVRVDEANRLKEDKKARKVVKTSRWLLLRNSENVKGDDMLRLQELLEANRSLLTVYLLKDDLKQLWKFTCIEEAGLFWEQWHQRAMESGIPPLILFARRLKGYLQGILNHCLWPLHTGILEGINNKIKVIKRMAYGFRDHEYFFLKIRAAFPGIPG | not soluble
16 | MGSDKIHHHHHHMTAANTQHVEHINECTLESVIDLIRDADKPMVFKGLCHHWPLVQAGLESAQSAMTYLRQFYQGMPVTAYYVPPEQHGRVFYNEQLDGFNYQAGRLDFNQLLDRLSQEMIKDMPAGMYMGSTDIHQCLPGLGAQNSLDLAPMQPLTSIWLGNQTKVAAHYDFPLNLACNVVGKRTFTLFPPEQISNLYVGPMELAPGGQDISLVDMANPDFERFPRFQHALDASLTAELSPGDVLFIPSMWWHHVRGVDDFNVLITHWWRDTPGFLGRPNNALLHSILSLRSLPKAQRQAWKSIFEHYIFDHDDVDDSHIPDNVKGMQTKPLDELTARKIRADLINKLKR | not soluble
17 | MGSDKIHHHHHHMTAGGLHNGSGGMESARHCRELVERWLADGSFDARLPEVVRLRGVLQPEQYHAEGDAWTHTMLAMEAVPDDADPRVFWGVLLHDIGKAETTAFIKGRWRSWGHAEAGAGEVSAIMTRLGFPHLAADVTWLVKHHTFHFSWNLTPGARLSPKQRRFMEHPLFPLLLEVCDADAAGSRGGSDKGVKIGQLADMYADVTKGWADS | not soluble
18 | MGSDKIHHHHHHMTAPMNVIDDYYVSLGKIGILNYRTMDESGENAFLRKYLPSLSSPTILDVGANIGGYSKAILRESPSARVYAFEPHPITFGNLTKDTAEDRFHALNIGIGAKEETLDFYDYRDEDGSSHASLYKEVIEDIHHRPSTSHRVSIRRLDDVCAELGLPHIALLKIDTEGHELAALQGAERLIRSGAIDVIQFEFNEMNVISRCFFKDFWDFLPDYRFFRLLPHGSIEIKTYIPSFCEIFAFQNIVCVKKDLPEFF | not soluble
19 | MGSDKIHHHHHHMTATDSSILNQYLVGKEPFYQPQHDEVALFEAAYRKRLPVMVKGPTGCGKSRFVEFMAWRLGKPLVTVACNEDMTAADLVGRWLLDKDGTRWQDGPLTVAARYGAICYLDEIVEARQDTTVVIHPLTDHRRTLPLDKKGELIRAHPDFQLVISYNPGYQSLMKDLKQSTKQRFTGFEFDYPNAELEAGILVQETGVAPSIAAQLVTVAATARRLKGHGLDEGISTRLLVYAAMLMDDGVAPRAACRMALVQPITDDADIRATLEHAIDMTFA | not soluble
